PMC9482650, “Quantitative fragmentomics allow affinity mapping of interactomes” (Nature Communications, 2022)

T1: APBA2_1, Q99767
T1 sequence (Q99767 563-664, limits assumed, looked up): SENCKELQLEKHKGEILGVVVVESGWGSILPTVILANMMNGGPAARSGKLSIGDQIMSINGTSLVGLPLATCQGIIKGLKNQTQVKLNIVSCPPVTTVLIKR

T2: APBA3_1, O96018
T2 sequence (O96018 389-490, limits assumed, looked up): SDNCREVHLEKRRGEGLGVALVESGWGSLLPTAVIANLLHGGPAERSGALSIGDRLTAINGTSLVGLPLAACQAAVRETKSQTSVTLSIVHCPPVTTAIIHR

T3: ARHGEF11, O15085
T3 sequence (O15085 42-136, limits assumed, looked up): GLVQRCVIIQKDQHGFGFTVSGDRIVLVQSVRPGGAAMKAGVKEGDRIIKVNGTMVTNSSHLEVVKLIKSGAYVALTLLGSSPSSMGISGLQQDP

T4: CARD11, Q9BXL7
T4 sequence (Q9BXL7 662-765, limits assumed, looked up): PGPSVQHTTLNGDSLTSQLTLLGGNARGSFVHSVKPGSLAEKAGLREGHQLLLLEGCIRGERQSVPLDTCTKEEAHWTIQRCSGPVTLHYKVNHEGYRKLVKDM

T5: DVL3, Q92997
T5 sequence (Q92997 244-331, limits assumed, looked up): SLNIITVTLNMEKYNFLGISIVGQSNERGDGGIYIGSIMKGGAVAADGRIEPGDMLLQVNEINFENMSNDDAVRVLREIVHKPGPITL

T6: FRMPD1, Q5SYB0
T6 sequence (Q5SYB0 52-145, limits assumed, looked up): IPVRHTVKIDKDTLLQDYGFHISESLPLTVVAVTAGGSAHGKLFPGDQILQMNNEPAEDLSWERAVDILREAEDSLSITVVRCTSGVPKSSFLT

T7: GRIP1_2, Q9Y3R0
T7 sequence (Q9Y3R0 145-248, limits assumed, looked up): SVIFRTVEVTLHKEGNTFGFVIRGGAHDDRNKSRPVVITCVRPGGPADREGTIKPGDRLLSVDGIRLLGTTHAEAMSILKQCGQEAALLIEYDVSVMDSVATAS

T8: MPP6, Q9NZW5
T8 sequence (Q9NZW5 125-219, limits assumed, looked up): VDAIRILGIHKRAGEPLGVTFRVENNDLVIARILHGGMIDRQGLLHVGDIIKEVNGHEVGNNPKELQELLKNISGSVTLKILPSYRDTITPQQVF

T9: NHERF3_1, Q5T2W1
T9 sequence (Q5T2W1 4-100, limits assumed, looked up): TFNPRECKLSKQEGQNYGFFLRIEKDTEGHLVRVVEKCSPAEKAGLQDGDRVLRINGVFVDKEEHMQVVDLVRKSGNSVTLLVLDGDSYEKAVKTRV

T10: PCLO, Q9Y6V0
T10 sequence (Q9Y6V0 4491-4600, limits assumed, looked up): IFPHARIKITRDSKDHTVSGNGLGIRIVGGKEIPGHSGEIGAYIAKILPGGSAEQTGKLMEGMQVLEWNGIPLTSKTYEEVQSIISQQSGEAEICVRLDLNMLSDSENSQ

T11: SNTA1, Q13424
T11 sequence (Q13424 82-180, limits assumed, looked up): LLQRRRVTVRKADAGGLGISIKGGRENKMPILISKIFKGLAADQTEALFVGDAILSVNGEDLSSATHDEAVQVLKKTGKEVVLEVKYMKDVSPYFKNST

T12: TIAM2, Q8IVF5
T12 sequence (Q8IVF5 885-986, limits assumed, looked up): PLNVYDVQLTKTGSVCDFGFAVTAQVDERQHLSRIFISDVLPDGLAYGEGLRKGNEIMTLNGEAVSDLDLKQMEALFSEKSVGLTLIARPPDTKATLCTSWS

T13: TJP3_3, O95049
T13 sequence (O95049 375-456, limits assumed, looked up): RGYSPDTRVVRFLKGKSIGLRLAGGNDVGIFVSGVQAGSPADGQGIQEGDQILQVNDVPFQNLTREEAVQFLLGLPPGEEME


Target: T1, APBA2_1, Q99767
Experiment: holdup assay
Parameters: key: below the threshold = too weak to quantify, mostly under pKd 3.1 to 4
Conditions: plain residues with an end cap or a label only (N-terminal biotin on a linker: ado-ado)

| Binder | pKd |
| --- | --- |
| SMLNRRTTPV [CACNG4, Q9UBN1] | below the threshold |
| LSEFKAMDSF [CTNNA2, P26232] | below the threshold |

Target: T2, APBA3_1, O96018
Experiment: holdup assay
Parameters: key: below the threshold = too weak to quantify, mostly under pKd 3.1 to 4
Conditions: plain residues with an end cap or a label only (N-terminal biotin on a linker: ado-ado)

| Binder | pKd |
| --- | --- |
| SMLNRRTTPV [CACNG4, Q9UBN1] | below the threshold |
| LSEFKAMDSF [CTNNA2, P26232] | below the threshold |

Target: T3, ARHGEF11, O15085
Experiment: holdup assay
Parameters: key: below the threshold = too weak to quantify, mostly under pKd 3.1 to 4
Conditions: plain residues with an end cap or a label only (N-terminal biotin on a linker: ado-ado)

| Binder | pKd |
| --- | --- |
| SMLNRRTTPV [CACNG4, Q9UBN1] | 3.89 |
| LSEFKAMDSF [CTNNA2, P26232] | below the threshold |

Target: ARHGEF12, Q9NZN5-2
Experiment: holdup assay
Parameters: key: below the threshold = too weak to quantify, mostly under pKd 3.1 to 4
Conditions: plain residues with an end cap or a label only (N-terminal biotin on a linker: ado-ado)

ARHGEF12, Q9NZN5-2, sequence (Q9NZN5 other isoform, or with tags, fused parts or gaps): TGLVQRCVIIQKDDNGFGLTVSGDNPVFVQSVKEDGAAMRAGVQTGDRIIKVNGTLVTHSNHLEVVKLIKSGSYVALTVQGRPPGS

| Binder | pKd |
| --- | --- |
| SMLNRRTTPV [CACNG4, Q9UBN1] | 3.86 |
| LSEFKAMDSF [CTNNA2, P26232] | below the threshold |

Target: T4, CARD11, Q9BXL7
Experiment: holdup assay
Parameters: key: below the threshold = too weak to quantify, mostly under pKd 3.1 to 4
Conditions: plain residues with an end cap or a label only (N-terminal biotin on a linker: ado-ado)

| Binder | pKd |
| --- | --- |
| SMLNRRTTPV [CACNG4, Q9UBN1] | below the threshold |
| LSEFKAMDSF [CTNNA2, P26232] | below the threshold |

Target: CASK, O14936
Experiment: holdup assay
Parameters: key: below the threshold = too weak to quantify, mostly under pKd 3.1 to 4
Conditions: plain residues with an end cap or a label only (N-terminal biotin on a linker: ado-ado)

CASK, O14936, sequence (O14936 487-570): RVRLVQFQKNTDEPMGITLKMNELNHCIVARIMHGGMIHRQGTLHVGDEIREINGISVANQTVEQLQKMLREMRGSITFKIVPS

| Binder | pKd |
| --- | --- |
| SMLNRRTTPV [CACNG4, Q9UBN1] | below the threshold |
| LSEFKAMDSF [CTNNA2, P26232] | below the threshold |

Target: DLG5_1, Q8TDM6
Experiment: holdup assay
Parameters: key: below the threshold = too weak to quantify, mostly under pKd 3.1 to 4
Conditions: plain residues with an end cap or a label only (N-terminal biotin on a linker: ado-ado)

DLG5_1, Q8TDM6, sequence (Q8TDM6 617-713): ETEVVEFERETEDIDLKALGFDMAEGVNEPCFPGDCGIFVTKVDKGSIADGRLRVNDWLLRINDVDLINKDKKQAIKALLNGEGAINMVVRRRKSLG

| Binder | pKd |
| --- | --- |
| SMLNRRTTPV [CACNG4, Q9UBN1] | below the threshold |
| LSEFKAMDSF [CTNNA2, P26232] | below the threshold |

Target: T5, DVL3, Q92997
Experiment: holdup assay
Parameters: key: below the threshold = too weak to quantify, mostly under pKd 3.1 to 4
Conditions: plain residues with an end cap or a label only (N-terminal biotin on a linker: ado-ado)

| Binder | pKd |
| --- | --- |
| SMLNRRTTPV [CACNG4, Q9UBN1] | below the threshold |
| LSEFKAMDSF [CTNNA2, P26232] | below the threshold |

Target: T6, FRMPD1, Q5SYB0
Experiment: holdup assay
Parameters: key: below the threshold = too weak to quantify, mostly under pKd 3.1 to 4
Conditions: plain residues with an end cap or a label only (N-terminal biotin on a linker: ado-ado)

| Binder | pKd |
| --- | --- |
| SMLNRRTTPV [CACNG4, Q9UBN1] | below the threshold |
| LSEFKAMDSF [CTNNA2, P26232] | below the threshold |

Target: T7, GRIP1_2, Q9Y3R0
Experiment: holdup assay
Parameters: key: below the threshold = too weak to quantify, mostly under pKd 3.1 to 4
Conditions: plain residues with an end cap or a label only (N-terminal biotin on a linker: ado-ado)

| Binder | pKd |
| --- | --- |
| SMLNRRTTPV [CACNG4, Q9UBN1] | below the threshold |
| LSEFKAMDSF [CTNNA2, P26232] | below the threshold |

Target: GRIP2_3, Q9C0E4
Experiment: holdup assay
Parameters: key: below the threshold = too weak to quantify, mostly under pKd 3.1 to 4
Conditions: plain residues with an end cap or a label only (N-terminal biotin on a linker: ado-ado)

GRIP2_3, Q9C0E4, sequence (Q9C0E4 238-339): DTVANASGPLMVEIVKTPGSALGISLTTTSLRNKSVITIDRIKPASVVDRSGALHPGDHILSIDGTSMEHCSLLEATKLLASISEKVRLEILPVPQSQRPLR

| Binder | pKd |
| --- | --- |
| SMLNRRTTPV [CACNG4, Q9UBN1] | below the threshold |
| LSEFKAMDSF [CTNNA2, P26232] | below the threshold |

Target: GRIP2_6, Q9C0E4
Experiment: holdup assay
Parameters: key: below the threshold = too weak to quantify, mostly under pKd 3.1 to 4
Conditions: plain residues with an end cap or a label only (N-terminal biotin on a linker: ado-ado)

GRIP2_6, Q9C0E4, sequence (Q9C0E4 648-740): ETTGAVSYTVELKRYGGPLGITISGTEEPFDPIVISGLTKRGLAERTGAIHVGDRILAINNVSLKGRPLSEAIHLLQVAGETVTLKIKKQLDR

| Binder | pKd |
| --- | --- |
| SMLNRRTTPV [CACNG4, Q9UBN1] | below the threshold |
| LSEFKAMDSF [CTNNA2, P26232] | below the threshold |

Target: HTRA2, O43464
Experiment: holdup assay
Parameters: key: below the threshold = too weak to quantify, mostly under pKd 3.1 to 4
Conditions: plain residues with an end cap or a label only (N-terminal biotin on a linker: ado-ado)

HTRA2, O43464, sequence (O43464 355-458): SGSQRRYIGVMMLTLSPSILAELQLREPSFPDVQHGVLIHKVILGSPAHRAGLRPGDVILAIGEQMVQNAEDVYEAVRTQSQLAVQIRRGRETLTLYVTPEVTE

| Binder | pKd |
| --- | --- |
| SMLNRRTTPV [CACNG4, Q9UBN1] | below the threshold |
| LSEFKAMDSF [CTNNA2, P26232] | below the threshold |

Target: IL16_1, Q14005
Experiment: holdup assay
Parameters: key: below the threshold = too weak to quantify, mostly under pKd 3.1 to 4
Conditions: plain residues with an end cap or a label only (N-terminal biotin on a linker: ado-ado)

IL16_1, Q14005, sequence (Q14005 210-306): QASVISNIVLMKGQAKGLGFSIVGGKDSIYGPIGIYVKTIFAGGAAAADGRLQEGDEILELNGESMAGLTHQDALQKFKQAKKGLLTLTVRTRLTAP

| Binder | pKd |
| --- | --- |
| SMLNRRTTPV [CACNG4, Q9UBN1] | below the threshold |
| LSEFKAMDSF [CTNNA2, P26232] | below the threshold |

Target: Inadl_6, Q8NI35
Experiment: holdup assay
Parameters: key: below the threshold = too weak to quantify, mostly under pKd 3.1 to 4
Conditions: plain residues with an end cap or a label only (N-terminal biotin on a linker: ado-ado)

Inadl_6, Q8NI35, sequence (Q8NI35 1058-1167): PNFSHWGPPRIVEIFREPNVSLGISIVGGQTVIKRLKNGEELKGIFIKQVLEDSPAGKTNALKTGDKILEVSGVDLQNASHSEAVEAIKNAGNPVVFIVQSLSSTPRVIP

| Binder | pKd |
| --- | --- |
| SMLNRRTTPV [CACNG4, Q9UBN1] | below the threshold |
| LSEFKAMDSF [CTNNA2, P26232] | below the threshold |

Target: MAGI2_6, Q86UL8
Experiment: holdup assay
Parameters: key: below the threshold = too weak to quantify, mostly under pKd 3.1 to 4
Conditions: plain residues with an end cap or a label only (N-terminal biotin on a linker: ado-ado)

MAGI2_6, Q86UL8, sequence (Q86UL8 1141-1229): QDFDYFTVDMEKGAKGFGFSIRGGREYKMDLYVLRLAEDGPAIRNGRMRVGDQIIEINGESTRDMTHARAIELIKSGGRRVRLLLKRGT

| Binder | pKd |
| --- | --- |
| SMLNRRTTPV [CACNG4, Q9UBN1] | below the threshold |
| LSEFKAMDSF [CTNNA2, P26232] | below the threshold |

Target: T8, MPP6, Q9NZW5
Experiment: holdup assay
Parameters: key: below the threshold = too weak to quantify, mostly under pKd 3.1 to 4
Conditions: plain residues with an end cap or a label only (N-terminal biotin on a linker: ado-ado)

| Binder | pKd |
| --- | --- |
| SMLNRRTTPV [CACNG4, Q9UBN1] | below the threshold |
| LSEFKAMDSF [CTNNA2, P26232] | below the threshold |

Target: T9, NHERF3_1, Q5T2W1
Experiment: holdup assay
Parameters: key: below the threshold = too weak to quantify, mostly under pKd 3.1 to 4
Conditions: plain residues with an end cap or a label only (N-terminal biotin on a linker: ado-ado)

| Binder | pKd |
| --- | --- |
| SMLNRRTTPV [CACNG4, Q9UBN1] | below the threshold |
| LSEFKAMDSF [CTNNA2, P26232] | below the threshold |

Target: NHERF4_2, Q86UT5
Experiment: holdup assay
Parameters: key: below the threshold = too weak to quantify, mostly under pKd 3.1 to 4
Conditions: plain residues with an end cap or a label only (N-terminal biotin on a linker: ado-ado)

NHERF4_2, Q86UT5, sequence (Q86UT5 220-308): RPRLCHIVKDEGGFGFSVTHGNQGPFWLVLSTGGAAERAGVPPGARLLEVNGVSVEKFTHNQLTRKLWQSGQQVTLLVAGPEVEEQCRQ

| Binder | pKd |
| --- | --- |
| SMLNRRTTPV [CACNG4, Q9UBN1] | below the threshold |
| LSEFKAMDSF [CTNNA2, P26232] | below the threshold |

Target: NOS1, P29475
Experiment: holdup assay
Parameters: key: below the threshold = too weak to quantify, mostly under pKd 3.1 to 4
Conditions: plain residues with an end cap or a label only (N-terminal biotin on a linker: ado-ado)

NOS1, P29475, sequence (P29475 9-101): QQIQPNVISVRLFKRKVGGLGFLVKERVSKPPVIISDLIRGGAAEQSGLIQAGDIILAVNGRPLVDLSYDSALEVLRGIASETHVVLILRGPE

| Binder | pKd |
| --- | --- |
| SMLNRRTTPV [CACNG4, Q9UBN1] | 3.98 |
| LSEFKAMDSF [CTNNA2, P26232] | below the threshold |

Target: T10, PCLO, Q9Y6V0
Experiment: holdup assay
Parameters: key: below the threshold = too weak to quantify, mostly under pKd 3.1 to 4
Conditions: plain residues with an end cap or a label only (N-terminal biotin on a linker: ado-ado)

| Binder | pKd |
| --- | --- |
| SMLNRRTTPV [CACNG4, Q9UBN1] | below the threshold |
| LSEFKAMDSF [CTNNA2, P26232] | below the threshold |

Target: PICK1, Q9NRD5
Experiment: holdup assay
Parameters: key: below the threshold = too weak to quantify, mostly under pKd 3.1 to 4
Conditions: plain residues with an end cap or a label only (N-terminal biotin on a linker: ado-ado)

PICK1, Q9NRD5, sequence (Q9NRD5 17-115): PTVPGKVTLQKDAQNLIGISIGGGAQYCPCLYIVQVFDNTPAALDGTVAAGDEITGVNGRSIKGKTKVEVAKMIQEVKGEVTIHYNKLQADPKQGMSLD

| Binder | pKd |
| --- | --- |
| SMLNRRTTPV [CACNG4, Q9UBN1] | below the threshold |
| LSEFKAMDSF [CTNNA2, P26232] | below the threshold |

Target: T11, SNTA1, Q13424
Experiment: holdup assay
Parameters: key: below the threshold = too weak to quantify, mostly under pKd 3.1 to 4
Conditions: plain residues with an end cap or a label only (N-terminal biotin on a linker: ado-ado)

| Binder | pKd |
| --- | --- |
| SMLNRRTTPV [CACNG4, Q9UBN1] | 3.86 |
| LSEFKAMDSF [CTNNA2, P26232] | below the threshold |

Target: T12, TIAM2, Q8IVF5
Experiment: holdup assay
Parameters: key: below the threshold = too weak to quantify, mostly under pKd 3.1 to 4
Conditions: plain residues with an end cap or a label only (N-terminal biotin on a linker: ado-ado)

| Binder | pKd |
| --- | --- |
| SMLNRRTTPV [CACNG4, Q9UBN1] | below the threshold |
| LSEFKAMDSF [CTNNA2, P26232] | 4.11 |

Target: T13, TJP3_3, O95049
Experiment: holdup assay
Parameters: key: below the threshold = too weak to quantify, mostly under pKd 3.1 to 4
Conditions: plain residues with an end cap or a label only (N-terminal biotin on a linker: ado-ado)

| Binder | pKd |
| --- | --- |
| SMLNRRTTPV [CACNG4, Q9UBN1] | below the threshold |
| LSEFKAMDSF [CTNNA2, P26232] | below the threshold |
